One may read the IC50 as the concentration that inhibits the measured activity by half.

Assay [1] addresses T1, purified full-length cannabinoid receptor type 2 (CNR2) (human, UniProt P34972 1-360).
T1 construct: human cannabinoid receptor type 2; further tags may be present; also called full-length CNR2; source: P. pastoris, solubilized in DDM/CHS, purified (HisTrap)
Kind of assay: SPR; competition: 1.1 µM ADRB2 or 0.30 µM CNR2 preincubated at least 1 h with a range of GASP peptide or control peptide, injected over captured GST-tagged central domain of GASP-1; 25°C; endpoint responses 20 s after injection end. Particulars: both partners purified. A general note: Surface plasmon resonance follows binding to a sensor surface in real time, without labels.

Assay [2] has as its target T2, purified full-length β2 adrenergic receptor (ADRB2) (human, UniProt P07550 1-413).
T2 construct: human β2 adrenergic receptor; further tags may be present; also called full-length ADRB2; source: P. pastoris, solubilized in DDM/CHS, purified (HisTrap)
The assay is described as above. Particulars: both partners purified.

T1 sequence (P34972 whole entry): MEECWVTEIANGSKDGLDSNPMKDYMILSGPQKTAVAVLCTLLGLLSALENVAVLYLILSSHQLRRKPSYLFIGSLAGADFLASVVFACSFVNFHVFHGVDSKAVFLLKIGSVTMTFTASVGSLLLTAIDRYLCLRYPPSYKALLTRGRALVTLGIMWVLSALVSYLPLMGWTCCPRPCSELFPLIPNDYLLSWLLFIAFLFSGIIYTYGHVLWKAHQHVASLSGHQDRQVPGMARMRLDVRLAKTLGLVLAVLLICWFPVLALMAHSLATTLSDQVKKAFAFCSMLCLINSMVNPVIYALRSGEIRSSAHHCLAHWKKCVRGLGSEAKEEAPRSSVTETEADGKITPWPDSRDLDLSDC

B1: GASP peptide (peptide)
peptide: RVKQEPRFEEEVIIGSWFWAEKEA
notes: 24 amino acids containing the first GASP motif of GASP-2; also called synthetic peptide of 24 amino acids containing the first GASP motif of GASP-2; source: synthetic peptide (Genecust, ≥85% purity)
As to B1, the IC50 in assay [1] and in assay [2] was around 100 µM in each case.
